Measurements reported in patent publication US12590288B2, “Method of treating an inflammatory disease by administering an agent which binds a surface receptor on a tuft cell that induces an ILC class 2 inflammatory response” (The Broad Institute, Inc., priority 2017, dated 2026).
“And” between values parts separate entries of the source, which are not always exact repeats. Equal entries are not always repeated.

Legend:
[1] = system: cultured epithelia from proximal or distal trachea; experiment: rIL-13-induced mucous metaplasia in air-liquid interface cultured tracheal epithelia; type: cell-based, mouse; settings: proximal vs distal tracheal epithelium ALI cultures, rIL-13 vs control, 72 hours
Procedure: Transwell cultures. Cells were cultured and expanded in complete SAGM (small airway epithelial cell growth medium; Lonza, CC-3118) containing TGF-β/BMP4/WNT antagonist cocktails and 5 μM Rock inhibitor Y-27632 (Selleckbio, S1049). To initiate air-liquid interface (ALI) cultures, airway basal stem cells were dissociated from mouse tracheas and seeded onto transwell membranes. After reaching confluence, media was removed from the upper chamber. Mucociliary differentiation was performed with PneumaCult-ALI Medium (StemCell, 05001). Differentiation of airway basal stem cells on an air-liquid interface was followed by directly visualizing beating cilia in real time after 10-14 days. […]
Statistical analysis of proximodistal mucous metaplasia. For the analysis in FIG. 38H,I, the extent of goblet cell hyperplasia was assessed using counts of Muc5ac^+ goblet cells, normalized to counts of GFP^+ ciliated cells. To quantify differences in the count values between the samples in different conditions (n=6, Foxj 1-GFP mice), Applicants fit a negative binomial regression using the ‘glm.nb’ function from the ‘MASS’ package in R. Pairwise comparisons between means for each condition were computed using post hoc tests and p-values were adjusted for multiple comparisons using Tukey's HSD, implemented using the function ‘pairs’ from the ‘emeans’ package in R.

[2] = system: small intestinal organoids; experiment: RANKL-mediated in-vitro differentiation of M cells in intestinal organoids (scRNA-seq); type: cell-based, mouse; settings: 5,434 cells from organoids treated with RANKL for 0, 3 and 6 days
Procedure: Organoid cultures. Following crypt isolation from the whole small intestine^142, the single cell suspension was resuspended in Matrigel® (BD Bioscience) with 1 μM Jagged-1 peptide (Ana-Spec). Roughly 300 crypts embedded in 25 μl of Matrigel® were seeded onto each well of a 24-well plate. Once solidified, the Matrigel® was incubated in 600 μl culture medium (Advanced DMEM/F12, Invitrogen) with streptomycin/penicillin and glutamax and supplemented with EGF (100 ng/mL, Peprotech®), R-Spondin-1 (600 ng/mL, R&D), Noggin (100 ng/mL, Peprotech®), Y-276432 dihydrochloride monohydrate (10 μM, Tocris™)), N-acetyl-1-cysteine (1 μM, Sigma-Aldrich), N2 (1×, Life Technologies), B27 (1×, Life Technologies) and Wnt3A (25 ng/mL, R&D Systems). Fresh media was replaced on day 3, and organoids were passaged by dissociation with TrypLE and resuspended in new Matrigel® on day 6 with a 1:3 split ratio. For selected experiments, organoids were additionally treated with RANKL (100 ng/mL, Biolegends). For T helper cell co-culture experiments, organoids were cultured with Th1, Th2, Th17 or iTregs. Roughly 10,000 T helper cells were added to each well of 500 organoids and were supplemented either to the medium or suspended in the Matrigel®. Treated organoids were dissociated and subjected to scRNA-seq using both methods. […]

B1: rIL-13: recombinant murine IL-13 used to induce mucous metaplasia in cultured airway epithelium (protein, UniProt P20109 19-131, looked up)
Interleukin-13: APGPVPRSVSLPLTLKELIEELSNITQDQTPLCNGSMVWSVDLAAGGFCVALDSLTNISNCNAIYRTQRILHGLCNRKAPTTVSSLPDTKIEVAHFITKLLSYTKQLFRHGPF
[1]
  induction of goblet cell differentiation (Muc5ac+ goblet cells normalized to GFP+ ciliated cells): much higher induction of goblet cell differentiation in the distal epithelium

B2: RANKL: cytokine added to small intestinal organoids as ex vivo model of M cell differentiation (protein, UniProt O35235 139-316, looked up)
Tumor necrosis factor ligand …: FSGAPAMMEGSWLDVAQRGKPEAQPFAHLTINAASIPSGSHKVTLSSWYHDRGWAKISNMTLSNGKLRVNQDGFYYLYANICFRHHETSGSVPTDYLQLMVYVVKTSIKIPSSHNLMKGGSTKNWSGNSEFHFYSINVGGFFKLRAGEEISIQVSNPSLLDPDQDATYFGAFKVQDID
[2]
  differentiated M cells identified by unsupervised clustering: 384 cells and 378 cells
